According to PMC7431086, “Molecular basis of the selective processing of short mRNA substrates by the DcpS mRNA decapping enzyme” (Proceedings of the National Academy of Sciences of the …, 2020):

Biological target: the molecule itself
Assay: crystal structure; DcpS (8-350, H268N) in 1:1 complex with m7GpppGU RNA, 5 mg/mL, 10 mM Hepes pH 7.5, 100 mM NaCl, 1.6 M NH4SO4; space group P212121, two dimers per asymmetric unit; 2.9 A

B1: DcpS from S. cerevisiae (residues 8-350; H268N) (enzyme, UniProt Q06151 8-350, looked up)
chain: FASLIKRFQFVSVLDSNPQTKVMSLLGTIDNKDAIITAEKTHFLFDETVRRPSQDGRSTPVLYNCENEYSCINGIQELKEITSNDIYYWGLSVIKQDMESNPTAKLNLIWPATPIHIKKYEQQNFHLVRETPEMYKRIVQPYIEEMCNNGRLKWVNNILYEGAESERVVYKDFSEENKDDGFLILPDMKWDGMNLDSLYLVAIVYRTDIKTIRDLRYSDRQWLINLNNKIRSIVPGCYNYAVHPDELRILVHYQPSYYHFNIHIVNIKHPGLGNSIAAGKAILLEDIIEMLNYLGPEGYMNKTITYAIGENHDLWKRGLEEELTKQLERDGIPKIPKIVNGFK
notes: Crystallised as a 1:1 complex with the capped dinucleotide m7GpppGU; also called Dcs1p; Scavenger Decapping Enzyme
binding result: binds
